Assay results published in US12331106B2, “Anti-angiopoietin-2 antibodies that induce Tie2 activation” (Institute for Basic Science, priority 2018, dated 2025).
“Also recorded” adds a separate entry of the source. Where two headings read alike, the source gives them in different places.

Assays:
[1] = molecular target: T1, hAng2-RBD (Homo sapiens, UniProt O15123); assay type: binding; conditions: for Relative Uptake (Da) Δ: 4B9
T1 construct: made in house; host or cells: HEK293F
T1 sequence (O15123 276-496): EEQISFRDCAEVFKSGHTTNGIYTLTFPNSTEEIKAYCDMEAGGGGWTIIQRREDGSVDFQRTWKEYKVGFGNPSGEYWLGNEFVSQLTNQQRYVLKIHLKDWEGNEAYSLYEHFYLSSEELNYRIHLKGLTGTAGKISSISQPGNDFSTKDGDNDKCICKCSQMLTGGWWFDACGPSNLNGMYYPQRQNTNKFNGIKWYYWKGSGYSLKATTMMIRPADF
Experimental: The antigenic determinants (epitopes) of hAng2 recognized by mouse monoclonal antibodies, 2C8 and 4B9, were analyzed by HDX-MS (Hydrogen/deuterium exchange-mass spectrometry) technique. HDX-MS analysis methods are described in the following articles; Houde D, Engen J R (2013) Methods Mol. Biol. 988: 269-89 and Houde et al. (2011) J. Pharm. Sci. 100 (6), 2071.
Recombinant hAng2-RBD protein was used to analyze the epitopes of antibodies 2C8 and 4B9. […] The prepared hAng2-RBD/antibody complexes were diluted 15 times with deuterium labeling buffer, labeled at various time, and then quenched with the same volume of quenching buffer. The labeling reaction time was 0 min (undeuterium), 0.33 min, 10 min, 60 min and 240 min. However, in undeuterium condition, the deuterium labeling buffer was replaced with equilibrium buffer and the reaction was immediately stopped with quenching buffer. For mass spectrometry, the deuterium labeled hAng2-RBD/antibody samples were loaded on a pepsin column and peptide digestion was proceeded.
The deuterium uptake difference between hAng2-RBD alone and the hAng2-RBD-antibody complex conditions was comparatively analyzed, and a region showing a distinct decrease in the deuterium uptake is either a peptide to which the antibody binds directly, or a structurally changed region. When the deuterium uptake difference between hAng2-RBD alone and the hAng2-RBD-antibody complex was 0.5-1 Da or more, it was considered significant.
In the case of antibody 4B9, it cannot be ruled out that an undetermined region (residues 25 to 40 of SEQ ID NO: 2) can be included in the scope of the epitope. The epitope analysis results for each antibody are shown in different colors on the 3D structure of hAng2-RBD, which was generated using PyMol software (FIG. 2).

[2] = test system: choroidal neovascularization (CNV); assay: Laser-induced CNV model, intravitreal injection: CNV regression and vascular leakage; assay type: in vivo, mice; conditions: 5 μg intravitreal at 7 days
Experimental: 2C8H11 antibody was tested for its ability to inhibit choroidal neovascularization (CNV), the hallmark of wet age-related macular degeneration (AMD) using laser-induced CNV model. After dilation of pupils with 5 mg/ml phenylephrine and 5 mg/ml tropicamide eye drops (Santen Pharmaceutical) and instillation of 0.5% proparacaine hydrochloride eye drops (Alcon) for topical anesthesia, laser photocoagulator (Lumenis Inc.) with a slit lamp delivery system was used with a glass coverslip as a contact lens to visualize the retina. Sufficient laser energy (532 nm wavelength, 250 mW power, 100 ms duration, 50 μm spot size) was delivered in 4 locations for each eye (the 3, 6, 9 and 12 o'clock positions of the posterior pole). Only burns that produced a bubble at the time of laser photocoagulation, indicating the rupture of the Bruch's membrane, were included in this study. Spots containing hemorrhage at the laser site were excluded from the analysis. To recapitulate a clinical situation, 2C8H11 (5 μg) was administered intravitreally to the mice at 7 days after laser photocoagulation (FIG. 13A). As a control or as for comparison, Fc or VEGF-Trap (5 μg each) was administered in the same manner to the mice. To intravitreally administer indicated reagents, ˜1 μl (5 mg/ml) containing 5 μg of each reagent was injected into the vitreal cavity using the Nanoliter 2000 micro-injector (World Precision Instruments) fitted with a glass capillary pipette. CD31+CNV volumes of the retinal pigment epithelium (RPE)-choroid-sclera flat mounts were calculated using the MATLAB® Image Processing Toolbox™ (Math Works, a comprehensive set of reference-standard algorithms and workflow apps for image processing, analysis, visualization, and algorithm development) at 14 days after laser photocoagulation. Anti-CD31 antibody (1:200, Millipore®) was used for the detection of endothelial cells of CNV. […] Combined fluorescein angiography (FA) and indocyanine green angiography (ICGA) enabled us to measure vascular leakage at the neovessels around the laser injury site. Continuous-wave laser modules at 488 nm and 785 nm were used as excitation sources for fluorescein and ICG, respectively. A raster scanning pattern of excitation lasers was achieved by a scanner system consisting of a rotating polygonal mirror (MC-5; Lincoln Laser) and a galvanometer-based scanning mirror (6230H; Cambridge technology), and delivered to the back aperture of an imaging lens. A high numerical aperture (NA) objective lens (PlanApo λ, NA 0.75; Nikon) was used as the imaging lens to provide wide-field fundus fluorescence images. Fluorescence signals detected by photomultiplier tubes (R9110; Hamamatsu Photonics) were digitized by frame grabber and reconstructed to images with size of 512×512 pixels per frame in real time. To visualize late-phase (6 min) FA and ICGA images utilizing the angiography system, 10 mg of fluorescein sodium (Alcon) and 0.15 mg of ICG (Daiichi Pharmaceutical) were administered intraperitoneally and intravenously, respectively. The imaging procedure was performed under systemic anesthesia and pupil dilation to improve the quality of images. Leaky areas from CNV were calculated as the total measured hyperfluorescent areas in FA images divided by the total measured CNV areas in ICGA images using a Java-based imaging software (ImajeJ; National Institutes of Health). […] Thus, the magnitude of the suppression of CNV and vascular leakage was quantitatively indistinguishable between VEGF-Trap and 2C8H11 in the mouse model of laser-induced CNV.

[3] = residues 14-23 (SEQ ID NO: 2), exposure time 0.00 min
[4] = residues 14-23 (SEQ ID NO: 2), exposure time 0.33 min
[5] = residues 14-23 (SEQ ID NO: 2), exposure time 10.00 min
[6] = residues 14-23 (SEQ ID NO: 2), exposure time 60.00 min
[7] = residues 14-23 (SEQ ID NO: 2), exposure time 240.00 min
[8] = residues 14-24 (SEQ ID NO: 2), exposure time 0.00 min
[9] = residues 14-24 (SEQ ID NO: 2), exposure time 0.33 min
[10] = residues 14-24 (SEQ ID NO: 2), exposure time 10.00 min
[11] = residues 14-24 (SEQ ID NO: 2), exposure time 60.00 min
[12] = residues 14-24 (SEQ ID NO: 2), exposure time 240.00 min
[13] = residues 41-47 (SEQ ID NO: 2), exposure time 0.00 min
[14] = residues 41-47 (SEQ ID NO: 2), exposure time 0.33 min
[15] = residues 41-47 (SEQ ID NO: 2), exposure time 10.00 min
[16] = residues 41-47 (SEQ ID NO: 2), exposure time 60.00 min
[17] = residues 41-47 (SEQ ID NO: 2), exposure time 240.00 min
[18] = residues 47-60 (SEQ ID NO: 2), exposure time 0.00 min
[19] = residues 47-60 (SEQ ID NO: 2), exposure time 0.33 min
[20] = residues 47-60 (SEQ ID NO: 2), exposure time 10.00 min
[21] = residues 47-60 (SEQ ID NO: 2), exposure time 60.00 min
[22] = residues 47-60 (SEQ ID NO: 2), exposure time 240.00 min

B1: 4B9: mouse monoclonal anti-Ang2 antibody; VH SEQ ID NO: 9, VL SEQ ID NO: 11; hybridoma KCLRF-BP-00418 (antibody, V domains shown)
VH: EVQLVESGGGLVKPGGSLKLSCAASGFTFSDYYMYWVRQTPEKRLEWVATISVGGSFTYYPDSVKGRFTISRDNAKNNLYLQMSSLKSEDTAMYYCARDWGLRPWFVYWGQGTLVTVSA
VL: DIVMTQSHKFMSTSVGDRVSITCKASQDVSTAVAWYQQKPGQSPKLLIYWASTRHTGVPDRFTGSGSGTDYTLTISSVQAEDLALYYCQQHYSTPPTFGSGTKLEIK
modifications: Heavy Chain Variable Region; Light Chain Variable Region
notes: mouse monoclonal anti-Ang2 antibody; hybridoma KCLRF-BP-00418
[1]; [3]
  Relative Uptake (Da) Δ: 0.25 Da
  Relative Uptake (Da) hAng2-RBD + 4B9: 0.55 Da
[1]; [4]
  Relative Uptake (Da) Δ: 0.34 Da
  Relative Uptake (Da) hAng2-RBD + 4B9: 0.97 Da
[1]; [5]
  Relative Uptake (Da) Δ: 0.83 Da
  Relative Uptake (Da) hAng2-RBD + 4B9: 1.38 Da
[1]; [6]
  Relative Uptake (Da) Δ: 0.78 Da
  Relative Uptake (Da) hAng2-RBD + 4B9: 1.49 Da
[1]; [7]
  Relative Uptake (Da) Δ: 0.60 Da
  Relative Uptake (Da) hAng2-RBD + 4B9: 1.66 Da
[1]; [8]
  Relative Uptake (Da) Δ: 0.01 Da
  Relative Uptake (Da) hAng2-RBD + 4B9: 0.76 Da
[1]; [9]
  Relative Uptake (Da) Δ: 0.33 Da
  Relative Uptake (Da) hAng2-RBD + 4B9: 1.27 Da
[1]; [10]
  Relative Uptake (Da) Δ: 1.50 Da
  Relative Uptake (Da) hAng2-RBD + 4B9: 1.75 Da
[1]; [11]
  Relative Uptake (Da) Δ: 1.35 Da
  Relative Uptake (Da) hAng2-RBD + 4B9: 2.05 Da
[1]; [12]
  Relative Uptake (Da) Δ: 0.80 Da
  Relative Uptake (Da) hAng2-RBD + 4B9: 2.61 Da
[1]; [13]
  Relative Uptake (Da) Δ: 0.15 Da
  Relative Uptake (Da) hAng2-RBD + 4B9: 0.16 Da
[1]; [14]
  Relative Uptake (Da) Δ: 1.02 Da
  Relative Uptake (Da) hAng2-RBD + 4B9: 0.20 Da
[1]; [15]
  Relative Uptake (Da) Δ: 0.92 Da
  Relative Uptake (Da) hAng2-RBD + 4B9: 0.43 Da
[1]; [16]
  Relative Uptake (Da) Δ: 1.15 Da
  Relative Uptake (Da) hAng2-RBD + 4B9: 0.54 Da
[1]; [17]
  Relative Uptake (Da) Δ: 1.18 Da
  Relative Uptake (Da) hAng2-RBD + 4B9: 0.61 Da
[1]; [18]
  Relative Uptake (Da) Δ: 0.05 Da
  Relative Uptake (Da) hAng2-RBD + 4B9: 0.96 Da
[1]; [19]
  Relative Uptake (Da) Δ: −0.13 Da
  Relative Uptake (Da) hAng2-RBD + 4B9: 1.94 Da
[1]; [20]
  Relative Uptake (Da) Δ: −0.06 Da
  Relative Uptake (Da) hAng2-RBD + 4B9: 2.53 Da
[1]; [21]
  Relative Uptake (Da) Δ: −0.01 Da
  Relative Uptake (Da) hAng2-RBD + 4B9: 2.69 Da
[1]; [22]
  Relative Uptake (Da) Δ: −0.11 Da
  Relative Uptake (Da) hAng2-RBD + 4B9: 3.06 Da
[1]; deuterium uptake difference 0.5-1 Da or more considered significant
  epitope of hAng2-RBD to which the antibody binds: residues 14 to 24 of SEQ ID NO: 2; also recorded: residues 41 to 47 of SEQ ID NO: 2

B2: 2C8H11: humanized anti-Ang2 human IgG1 antibody from mouse 2C8; VH SEQ ID NO: 55, VL SEQ ID NO: 56 (antibody, V domains shown)
VH: QVQLVQSGAEVKKPGASVKVSCKASGYTFTSYWMHWVRQAPGQGLEWMGMIDPSDSETRLNQKFKDRVTMTRDTSTSTVYMELSSLRSEDTAVYYCARRFYYGSDWYFDVWGQGTLVTVSS
VL: DIQLTQSPSFLSASVGDRVTITCKASQDVGTAVAWYQQKPGKAPKLLIYWASTRHTGVPSRFSGSGSGTEFTLTISSLQPEDFATYYCQQYSSYPLTFGQGTKVEIK
modifications: human IgG1 constant regions; VH; VL
[2]; FA/ICGA, 14 days after laser photocoagulation
  vascular leakage suppression compared with Fc: 38.3%
[2]; measured 14 days after laser photocoagulation
  CNV regression compared with Fc (CD31+ CNV volume): 65.3%
[2]; within-group
  vascular leakage reduction between 6 and 14 days after laser photocoagulation: 50.0%
